Changes are numbered by the printed parent chain. Numbers in names are those of the source.
B1: H4H1232N (antibody, human IgG4, V domains shown)
VH: EVQLVESGGGLVKPGGSLRLSCAASGFTFRNYNINWVRQAPGKGLEWVSLISGSSSYIYYADSVKGRFTVSRDNAKNSLYLQMNSLRAEDTAVYYCARRTLSYYVMDVWGQGTTVTVSS
VL: DIQVTQSPSPLSASVGDRVTITCRASQGISNYLAWYQQKPGRVPQLLIYAASTLQSGVPSRFSGSGSGTDFTLTISSLQPEDVATYYCQKYNSAPYTFGQGTKLEIK
notes: human IgG4 Fc (H4H prefix)
B2: H1M1230N (antibody, V domains shown)
VH: EVQLVESGGGLVQPGGSLRLSCTASGFIFSNFWMTWVRQAPGKGLEWVANIKQDGSETYCVDSVKGRFTISRDHAKNSLFLQMNSLRAEDTAVYYCARGAGTIYYYGMDVWGQGTTVIVSS
VL: DIQMTQSPSSVSASVGDRLTITCRASQDISSWLTWYQQKPGKAPNLLIYAASGLQSGVPSRFSGSGSGTDFTLTISNLQPEDFATYYCQQANSFPLTFGQGTRLEIK
notes: chimeric: human variable domains, mouse constant domains (H1M prefix, mouse Fc)
B3: H1M1234N (antibody, V domains shown)
VH: QVQLQQSGPGLVKSSQTLSLTCAISGDSVSSNSVAWNWIRQSPSRGLEWLGRTYYRSKWYNDYAVSVKSRININPDTSKNHFSLQLNSVTPEDTAVYFCARAWNWYYLDYWGQGTLVTVSS
VL: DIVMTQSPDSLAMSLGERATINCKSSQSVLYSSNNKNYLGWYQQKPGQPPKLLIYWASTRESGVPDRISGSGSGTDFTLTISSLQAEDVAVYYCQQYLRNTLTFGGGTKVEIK
notes: as for B2
B4: H2M1233N (antibody, mouse IgG2, V domains shown)
VH: QVVLVESGGGVVQPGRSLRLSCAASGFTFSSYGMHWVRQAPGKGLEWVAVIWYDGSNKYYVDSVKGRFTISRDNSNNTIYLQMNSLRAEDTAVYYCARSLIPVAGTDPIFGYWGQGTLVTVSS
VL: DIQMTQSPSTLSASVGDRVTITCRASQSVSSWLAWYQQKPGKAPKLLIFKASGLESGVPFRFSGSGSGTEFTLTISSLQPDDFATYYCQQYNTYSPTFGQGTKVEIK
notes: chimeric: human variable domains, mouse IgG2 Fc (H2M prefix)
B5: H2M1237N (antibody, mouse IgG2, V domains shown)
VH: B4 VH with N57I, V61A, S99A
VL: B4 VL with A51T
notes: as for B4
B6: H4H3467D (bispecific antibody, V domains shown)
VH 1: EVQLVESGGGLAQPGGSLRLSCAASGFTFNNYAMTWVRQAPGKGLDWVSAISDSGRSTFSADSVKGRFTISRDNSKNTLYLQMDSLRAEDTALYYCAKHRNWNYPVFDYWGQGTLVTVSS
VH 2: B1 VH
VL: DIQLTQSPSFLSASVGDRVTITCWASQGISSYLAWYQQKPGKAPKLLIYSASTLQSGVPSRFSGSGSGTEFTLTISSLQPEDFATYYCQQLNSYPFTFGPGTKVDIK
notes: Bi-specific with a common kappa light chain on both Fab arms; human IgG4 Fc by the H4H prefix
B7: H4H8751D (bispecific antibody, V domains shown)
VH 1: EVQLVESGGGLVQPGGSLRLSCAASGFTFSSYAMSWVRQAPGKGLEWVSAISGRGYNADYADSVKGRFTISRDNSKNTLYLQMNSLRAEDTAVYYCAKLEYFDYWGQGTLVTVSS
VH 2: B1 VH
VL: DIQMTQSPSTLSASVGDRVTITCRASQSISSWLAWYQQKPGKAPKLLIYKASSLESGVPSRFSGSGSGTDFTLTISSLRPEDFATYYCQQYNSYPLTFGGGTKVEIK
notes: as for B6
B8: H2M1236N (antibody, mouse IgG2, V domains shown)
VH: QVQLQESGPGLVKPSETLSLTCTVSGGSISNYYWSWIRQPPGKGLEWIGYIYYSGRTNYNPSLKSRVTISVDTSKNQFSLKLRSVTAADTAVYYCARHRITRTADSFDYWGQGTLVTVSS
VL: DIQMTQSPSSLSASVGDRVTITCQASQDITNYLNWYQQKPGKAPKLLIYDASNLETGVPSRFSGSGSGTDFTFTISSLQPEDVATFYCHQYGDLPYTFGQGTKLEIK
notes: as for B4
B9: H1M1241N (antibody, V domains shown)
VH: EVQLVESGGGLVKPGGSLRLSCAASGFTFSSYSMNWVRQAPGKGLEWVSSISSRSSYIYYADSVKGRFTISRDNAKNSLYLQMNSLRAEDTAVYYCARDHIVVVPGASYYYYGMDVWGQGTTVTVSS
VL: DIQMTQSPSSLSASVGDRVTITCRASQGIRNDLGWYQQKPGKAPKRLISAASSLQSGVPSRFSGSGSGTEFTLTISSLQPEDFATYYCLQHNSYPLTFGGGTKVEIK
notes: as for B2
B10: H2M1242N (antibody, mouse IgG2, V domains shown)
VH: EVQLVESGGGLVRPGGSLRLSCAASGFTFTSYAMNWVRQAPGKGLEWVSSISSYSSYIYIADSVKGRFTLSRDNAKNSLYLQMHSLRPEDTAVYFCAREGYSAYSYFDFWGRGTLVTVSS
VL: B4 VL with S30I, F49H, K50R, G53S, F60S, S77G, S95F, I106V
notes: as for B4
B11: H4H2594S (antibody, human IgG4, V domains shown)
VH: EVQLVESGGGLVKPGGSLRLSCAASGFTFSDYYMNWIRQAPGKGLEWVSYISSSGSSIYYADSVKGRFTISRDNAKNSLYLLMNSLRAEDTAVYYCARDGKYNSSPGDYWGQGTLVTVSS
VL: DIQMTQSPSSLSASVGDRVTIACRASQGISNYLAWFQQKPGKAPKSLIYAASSLQSGVPSKFSGSGSGTDFTLTISSLQPEDFATYYCQQYNSYPLTFGGGTKVEIKR
notes: human IgG4 Fc (H4H prefix)
B12: H4H2597B (antibody, human IgG4, V domains shown)
VH: EVQLVESGGGLVQPGGSLRLSCAVSGFTFSNYAMNWVRQAPGKGLEWVSVISDSGRSTYYADSVKGRFTISRDNSKNTLYLQMNSLRAEDTAVYFCAKRYNWNLHYFDYWGQGTTVTVSS
VL: EIVLTQSPDFQSVTPKEKVTITCRASQSIGGSLHWYQQKPDQSPKLLIKYASQSFSGVPSRFSGSGSGTDFTLTINSLEAEDAATYYCLQSSSLRTFGQGTKVEIKR
notes: human IgG4 Fc (H4H prefix)
B13: H4H2606B (antibody, human IgG4, V domains shown)
VH: EVQLVESGGGLVKPGGSLRLSCAASGFTFSDYYMNWIRQAPGKGLEWVSYISSSGNSIYYADSVKGRFTISRDNAKNSLFLQMSSLRAEDTAVYYCARDGRYNDRRRGYYWGQGTLVTVSS
VL: B12 VL with L4M, G31S
notes: human IgG4 Fc (H4H prefix)
B14: H4H2607B (antibody, human IgG4, V domains shown)
VH: B11 VH with V48I, I51L, S57A, I58T, L82Q, S104T, S105V, P106A, L115T
VL: DIQLTQSPSSLSASVGDRVTITCRASQGIRNDLGWYQQKPGKAPKRLIYAASSLQSGVPSRFSGSGSGTEFTLTISSLQPEDFATYYCLQHNSYPYTFGQGTKVEIKR
notes: human IgG4 Fc (H4H prefix)
B15: H4H2797P (antibody, human IgG4, V domains shown)
VH: QVQLVESGGGVVLPGRSLRLSCAASGFTFSSYLMYWVRQAPGKGLEWVAVIWYDGSNKFYGDSVKGRFTISRDNSKNTLYLQMNSLRAEDTAVYYCARDNGNSGYEDSWNAFDIWGQGTMVTVSS
VL: DIQMTQSPSSLSASVGDRVTITCRASQDIYNYLAWFQQKPGKAPKSLIYAASSLQTGVPSQFSGSGSGTDFTLTISSLQPEDFATYYCQQYNNYPFTFGPGTKVDIK
notes: human IgG4 Fc (H4H prefix)

What was measured:
[1] = target: T1, natural Fel d1 (Indoor Biotech, #NA-FD1-2) (cat, UniProt P30438 23-92; P30440 18-109); experiment: Octet BLI, mAb captured on anti-hFc tip, 500 nM nFel d1
T1 construct: Bought natural heterodimeric glycoprotein, chains linked by disulfide bonds; also called nFel d1; nFel d 1

[2] = target: T1, natural Fel d1 (Indoor Biotech, …); experiment: SPR (Biacore), mAb captured, natural Fel d1 injected, 25 C;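 also: rate constants obtained by fitting association and dissociation phases to a one-to-one binding model, with Kd and half-life derived from those rate constants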
[3] = target: T1, natural Fel d1 (Indoor Biotech, …); experiment: SPR (Biacore 2000), mAb captured via anti-human Fc, nFel d 1 injected, 25 C
[4] = target: T1, natural Fel d1 (Indoor Biotech, …); experiment: Octet BLI sandwich; captured mAb-1 H4H1300N, which did not pre-complex with nFel d1; self-competition value subtracted
[5] = target: T1, natural Fel d1 (Indoor Biotech, …); experiment: Octet BLI sandwich; nFel d1 pre-complexed with captured mAb-1 H4H1232N (competitor); self-competition value subtracted
[6] = target: T1, natural Fel d1 (Indoor Biotech, …); experiment: Octet BLI sandwich; nFel d1 pre-complexed with captured mAb-1 H4H1238N (competitor); self-competition value subtracted
[7] = target: T1, natural Fel d1 (Indoor Biotech, …); experiment: Octet BLI sandwich; nFel d1 pre-complexed with captured mAb-1 H4H1616N (competitor); self-competition value subtracted
[8] = target: T1, natural Fel d1 (Indoor Biotech, …); experiment: Octet BLI sandwich; nFel d1 pre-complexed with captured mAb-1 H4H2597P (competitor); self-competition value subtracted
[9] = target: T1, natural Fel d1 (Indoor Biotech, …); experiment: Octet BLI sandwich; nFel d1 pre-complexed with captured mAb-1 H4H2636P (competitor); self-competition value subtracted
[10] = target: T1, natural Fel d1 (Indoor Biotech, …); experiment: Octet BLI sandwich; nFel d1 pre-complexed with captured mAb-1 H4H2864P (competitor); self-competition value subtracted

T1 sequence (P30438 other isoform, or with tags, fused parts or gaps, chain 1 of 2): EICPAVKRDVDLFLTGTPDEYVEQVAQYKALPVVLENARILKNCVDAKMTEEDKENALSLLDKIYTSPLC
T1 sequence (P30440 18-109, chain 2 of 2): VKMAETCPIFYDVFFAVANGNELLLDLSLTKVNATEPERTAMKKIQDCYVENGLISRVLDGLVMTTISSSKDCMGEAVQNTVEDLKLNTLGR

Row | Binder | Kd [2] [pM] | koff [2] [s⁻¹] | kon [2] [M⁻¹ s⁻¹] | t1/2 [2] [min] | also measured
1 | B1 | 207 | 0.000331 | 1.6e+06 | 35 | Amount of 500 nM nFel d1 Bound [1]: 0.08 nm; 600 nM nFel d 1 Bound (RU) [3]: 42 RU; Kd [3]: 155 pM; koff [3]: 0.000472 s⁻¹; kon [3]: 3.05e+06 M⁻¹ s⁻¹; t1/2 [3]: 24 min; Response of mAb-2 Binding to nFel d1 pre-complexed with mAb-1 [4]: 0.02 nm; Response of mAb-2 Binding to nFel d1 pre-complexed with mAb-1 [5]: 0 nm; Response of mAb-2 Binding to nFel d1 pre-complexed with mAb-1 [6]: 0.76 nm; Response of mAb-2 Binding to nFel d1 pre-complexed with mAb-1 [7]: 0.18 nm; Response of mAb-2 Binding to nFel d1 pre-complexed with mAb-1 [8]: -0.03 nm; Response of mAb-2 Binding to nFel d1 pre-complexed with mAb-1 [9]: 0.29 nm; Response of mAb-2 Binding to nFel d1 pre-complexed with mAb-1 [10]: 0.3 nm
2 | B2 | 3370 | 0.000869 | 258000 | 13 | 
3 | B3 | 18300 | 0.00679 | 371000 | 2 | 
4 | B4 | 1400 | 0.000353 | 253000 | 33 | 
5 | B5 | 982 | 0.000276 | 281000 | 42 | 
6 | B6 |  |  |  |  | 600 nM nFel d 1 Bound (RU) [3]: 35 RU; Kd [3]: 250 pM; koff [3]: 0.000712 s⁻¹; kon [3]: 2.85e+06 M⁻¹ s⁻¹; t1/2 [3]: 16 min
7 | B7 |  |  |  |  | 600 nM nFel d 1 Bound (RU) [3]: 30 RU; Kd [3]: 347 pM; koff [3]: 0.00062 s⁻¹; kon [3]: 1.79e+06 M⁻¹ s⁻¹; t1/2 [3]: 19 min
8 | B8 | 4550 | 0.00142 | 312000 | 8 | 
9 | B9 | 3630 | 0.000662 | 182000 | 17 | 
10 | B10 | 3140 | 0.000604 | 192000 | 19 | 
11 | B11 | 878 | 0.000965 | 1.1e+06 | 12 | 
12 | B12 | 650 | 0.0015 | 2.31e+06 | 8 | 
13 | B13 | 765 | 0.000707 | 924000 | 16 | 
14 | B14 | 307 | 0.00091 | 2.97e+06 | 13 | 
15 | B15 | 35400 | 0.00713 | 202000 | 2 | 
